Results published in the RNAGym collection of RNA variant scans (doi:10.7554/elife.90254).

B1: LINE1-mini (parent)
chain: GGCAGAGCUCAACACAGCGUGGCAAAGUGGCUGUGGCUAGACUGCC

Variants of: B1
Test: self-cleavage, relative activity (ratio to wild type); higher = more cleavage; in vitro, sequencing; the parent is a self-cleaving ribozyme

Compared with GACAGAGCUCAACACAGCGUGGUAAAGUGGCUGUGGCUAGACUGCC [G2A C23U], GGCAGAGCUCAACACACCGUGGCAAAGUGGCUGUGGCUUGACUGCC [G17C A39U] is lower in self-cleavage: 2.33 for the first, 0.29 for the second.

GGCAGAGGUCAACACAACGUGGCAAAGUGGCUGUGGCUAGACUGCC [C8G G17A] and GGCAGAGCUCAACACAGCGUGGCAAAGUGGCUGUGUCUCGACUGCC [G36U A39C] are the same in self-cleavage: 0.08 for the first, 0.08 for the second.

Going from GGCAGAGCUCAACAAAGCGUGGCAAAAUGGCUGUGGCUAGACUGCC [C15A G27A] to GGCAGAGCUCAACACAGCGCGGCAAAGUUGCUGUGGCUAGACUGCC [U20C G29U], the self-cleavage rises from 0.15 to 0.4.

Going from GGCAGAGCUCAACACAGCGUGCCAAAGUUGCUGUGGCUAGACUGCC [G22C G29U] to GGGAGAGCUCAACACAGCGUGGCAAAGUGCCUGUGGCUAGACUGCC [C3G G30C], the self-cleavage falls from 0.38 to 0.32.

Going from GUCAGAGCCCAACACAGCGUGGCAAAGUGGCUGUGGCUAGACUGCC [G2U U9C] to GGCAGAGCUCACCACAGCGUGGCAGAGUGGCUGUGGCUAGACUGCC [A12C A25G], the self-cleavage rises from 0.01 to 0.02.

First: GGCAGAGCUCAACACAGCGUGGCAAAGUGGCUGUCGCCAGACUGCC [G35C U38C]
Second: GGCAGAGCUCGACACAGCGUGGCAAAGUGGCUGUGUCUAGACUGCC [A11G G36U]
The self-cleavage of the first is higher: 0.05 for the first, 0.02 for the second.

First: GGCAGCGCUCAACACAGCGUGGCAAAGUGGCUGUGGCAAGACUGCC [A6C U38A]
Second: GGCAGAGCUCAAAACAGCGUGGCAAAGUCGCUGUGGCUAGACUGCC [C13A G29C]
The self-cleavage of the first is higher: 0.28 for the first, 0.06 for the second.

Compared with GGCAGAGCGCAACAUAGCGUGGCAAAGUGGCUGUGGCUAGACUGCC [U9G C15U], GGCAGAGCUCAACACAGCGUGGCAAAGGGGCUGUGGCUAGACCGCC [U28G U43C] is lower in self-cleavage: 0.17 for the first, 0.08 for the second.

First: GGCAGAGCUCAACAAAGCGUGGCAAAGUGGCUGUGGCUAGACUACC [C15A G44A]
Second: GGCAGACCUCAACACAGCGUGGCAAAGUGGCUGUGGCUAGACUGUC [G7C C45U]
The self-cleavage of the first is lower: 0.08 for the first, 0.16 for the second.

Going from GGCAGAGCUCAACACAGGGUGGCAAAGUGGCUGUGGCUAGACAGCC [C18G U43A] to GGCAGAGCUCAACACAUCGUGGCAAAGUGGCUGUGUCUAGACUGCC [G17U G36U], the self-cleavage falls from 0.07 to 0.05.

First: GGCAGAGCUCAACACAGCAUGGCAAAGUGGCUGCGGCUAGACUGCC [G19A U34C]
Second: GGCAGAGCUCAACACAACGUGGCAAAUUGGCUGUGGCUAGACUGCC [G17A G27U]
The self-cleavage of the first is higher: 0.43 for the first, 0.31 for the second.

Going from GGCAGAGCUCAACACAGCGUGGCAAUGUGGCUGUGGCAAGACUGCC [A26U U38A] to UGCAGAGCUCAACACAGCGUGGCAAAGUGCCUGUGGCUAGACUGCC [G1U G30C], the self-cleavage falls from 0.35 to 0.27.

First: GGCAGAGCUCAACACAGCGUGGCAAGGUAGCUGUGGCUAGACUGCC [A26G G29A]
Second: GCCAGAGCUCAACACAGCGUGGCAAAGUGGCUUUGGCUAGACUGCC [G2C G33U]
The self-cleavage of the first is higher: 0.36 for the first, 0.05 for the second.

Compared with GCCAGAGCUCAACACAGCGUGGCAAAGUGGCUCUGGCUAGACUGCC [G2C G33C], GGCAGAACUCAACACAGCGUGGCAAAGUCGCUGUGGCUAGACUGCC [G7A G29C] is higher in self-cleavage: 0.02 for the first, 0.07 for the second.

Compared with GGCAGAGCUCAACACAGCGUGGCAAAGUGGCUGUGUCUAGACAGCC [G36U U43A], GGCAGAGCUCAACACAGCGUGGCAAAGUCGCUUUGGCUAGACUGCC [G29C G33U] is higher in self-cleavage: 0.04 for the first, 0.36 for the second.

Going from GGCAGAGCUCUACACAGCGUGGCAAAGUGGCCGUGGCUAGACUGCC [A11U U32C] to GGCAGAGCUCAACACAGUGUGGCAAAGUGGCUGUGGCUAGACUGCU [C18U C46U], the self-cleavage rises from 0.04 to 1.43.

Going from GGCAGAGCUCAACAAAGGGUGGCAAAGUGGCUGUGGCUAGACUGCC [C15A C18G] to GGCAGAGCCCAACACAGUGUGGCAAAGUGGCUGUGGCUAGACUGCC [U9C C18U], the self-cleavage falls from 0.09 to 0.01.

Compared with GGGAGAGCUCAACACAGCGUGGCAAAGUGGCUGCGGCUAGACUGCC [C3G U34C], GGUAGAGCUCAACACAGCGUGGCAAAGUGGCUGUGGAUAGACUGCC [C3U C37A] is higher in self-cleavage: 0.1 for the first, 0.12 for the second.

Going from GGCAGAGCUCAACACAGAGUGCCAAAGUGGCUGUGGCUAGACUGCC [C18A G22C] to GGCAGAGCUCAACCCAGCGUGGCAAAGUGGCUUUGGCUAGACUGCC [A14C G33U], the self-cleavage falls from 0.92 to 0.05.

Going from GGCGGUGCUCAACACAGCGUGGCAAAGUGGCUGUGGCUAGACUGCC [A4G A6U] to GGCAGACCUCAACACAGCGUGGCAAGGUGGCUGUGGCUAGACUGCC [G7C A26G], the self-cleavage falls from 0.27 to 0.11.

First: GGCAGAGAUCAACACAGCGUGGCAAAGUGGCUGUGGCUAGCCUGCC [C8A A41C]
Second: GGAAGAGCACAACACAGCGUGGCAAAGUGGCUGUGGCUAGACUGCC [C3A U9A]
The self-cleavage of the first is lower: 0.36 for the first, 0.59 for the second.

Compared with GGCAGGGCUCAACACAGCGUGGCAAAGUGGCUGUGGCCAGACUGCC [A6G U38C], GGCAGAGCUCAACACAGUGUGGCAAAGUGGCUGUGGCUAGACUACC [C18U G44A] is higher in self-cleavage: 0.07 for the first, 0.22 for the second.

First: GGCAGAGAUCAACACAGCGUGGCAAAGUGGCUGUGGCUAAACUGCC [C8A G40A]
Second: GGCAGAGCUCAACAGAGCGUGGCAAACUGGCUGUGGCUAGACUGCC [C15G G27C]
The self-cleavage of the first is higher: 0.27 for the first, 0.05 for the second.

Compared with GACAGAGCUCACCACAGCGUGGCAAAGUGGCUGUGGCUAGACUGCC [G2A A12C], GGGAGAACUCAACACAGCGUGGCAAAGUGGCUGUGGCUAGACUGCC [C3G G7A] is higher in self-cleavage: 0.06 for the first, 0.49 for the second.

Going from GGCACAGCUCAACACAGCGUGGCAAAGUGGCUGUGUCUAGACUGCC [G5C G36U] to GGCAGAGCUCAACACAGCGUGGCAAAGUGGCGGUGGCUAGACUCCC [U32G G44C], the self-cleavage rises from 0.04 to 0.06.

Compared with GGCAGAGCUCAACACAGUGUGGCAAAGUGGCUGUGGCUAGAAUGCC [C18U C42A], GACAGAGCUCAACACAGCGUGGCAAAGUGGCUGUGGCAAGACUGCC [G2A U38A] is higher in self-cleavage: 0.09 for the first, 0.71 for the second.

First: GGCAGACCUCAACACAGCGUGGCAUAGUGGCUGUGGCUAGACUGCC [G7C A25U]
Second: GGCAGAGCUCAACACAGAGUGGCACAGUGGCUGUGGCUAGACUGCC [C18A A25C]
The self-cleavage of the first is lower: 0.16 for the first, 0.36 for the second.

Compared with GGCAGAGCUCAACGCAGCGUGGCAAAGUGGCUGUGACUAGACUGCC [A14G G36A], GGCAGAGCUCAACACAGCGUGACAAAGUGGCUCUGGCUAGACUGCC [G22A G33C] is lower in self-cleavage: 0.26 for the first, 0.05 for the second.
